These results are taken from PMC6954389 (Nucleic Acids Research, 2019).

The target in this assay is T1, His6-σ^A_(C170), C-terminal residues 359–528 of σ^A, wildtype (M. tuberculosis, UniProt P9WGI1 359-528).
T1 sequence: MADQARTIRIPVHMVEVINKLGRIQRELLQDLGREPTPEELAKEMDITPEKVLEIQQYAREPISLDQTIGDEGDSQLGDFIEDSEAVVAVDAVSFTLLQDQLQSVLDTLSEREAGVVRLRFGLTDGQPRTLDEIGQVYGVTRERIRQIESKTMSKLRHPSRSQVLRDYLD
The experiment in a line: pull-down.

B1: tagless wildtype WhiB1, purified (from His6-SUMO-WhiB1) (natural protein)
chain: MDWRHKAVCRDEDPELFFPVGNSGPALAQIADAKLVCNRCPVTTECLSWALNTGQDSGVWGGMSEDERRALKRRNARTKARTGV
For B1, the binding result is “binds”.
